Assay results taken from patent publication US20260263521A1 (AIMED BIO, published 2026).

Molecular target: T1, Hybrid CD200R1 MH (mouse;human, UniProt Q9ES57;Q8TD46)
T1 construct: single domain; mouse D1 over human D2; also called MH hybrid domain; P001 MH domain
T1 sequence (hybrid extracellular part, looked up): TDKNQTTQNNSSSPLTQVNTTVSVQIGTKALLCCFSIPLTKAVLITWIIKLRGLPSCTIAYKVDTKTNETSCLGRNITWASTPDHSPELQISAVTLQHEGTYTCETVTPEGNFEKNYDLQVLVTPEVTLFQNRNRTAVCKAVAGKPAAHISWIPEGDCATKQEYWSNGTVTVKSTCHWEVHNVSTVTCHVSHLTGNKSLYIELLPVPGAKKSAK
Experiment: ELISA, plate-bound MH hybrid (1 ug/mL), antibody 0.0192-300 nM, O.D 450 nm; panel 'P001 MH domain-2)'
Description: Recombinant proteins were produced from the extracellular Ig-like V-type domain and Ig-like C2-type domain of human CD200R1, each designed as human-mouse (HM hybrid domain) and mouse-human (MH hybrid domain) recombinant proteins. A 96-well plate was coated at a concentration of 1 μg/mL with each protein at 4° C. for 16 hours and blocked with 3% skim milk. […] After color development with TMB substrate solution (Thermo Scientific, 34029, 1-Step™ Ultra TMB-ELISA Substrate Solution), the color reaction was stopped with a stop solution (Invitrogen, SS04, ELISA Stop Solution), and the absorbance was measured at an O.D. of 450 nm.

B1: P001009 (IgG) (antibody, V domains shown)
VH: EVQLLESGGGLVQPGGSLRLSCAASGFTFSSYDMSWVRQAPGKGLEWVSWISHGGGSIYYADSVKGRFTISRDNSKNTLYLQMNSLRAEDTAVYYCARDAPAYSAPLFDYWGQGTLVTVSS
VL: QSVLTQPPSASGTPGQRVTISCSGSSSNIGNNAVNWYQQLPGTAPKLLIYYDSNRPSGVPDRFSGSKSGTSASLAISGLRSEDEADYYCAAWDDSLSGYVFGGGTKLTVL
notes: also called P001009 WT; P001009 wt
B1: no binding (tested: 300 nM).
